Experiments:
[1] = target: WASp (WT*WASp) (Homo sapiens, UniProt P42768 1-502); experiment: EMSA; WASp alone; EMSA: 1x Promega E358A gel shift binding buffer (composition not given), 25 ul, 10^5 CPM 32P probe, 10 min 4 C then 20 min room temperature, 6% native PAGE; conditions: protein: recombinant; tags: Flag; label: 32P (T4 PNK); single strand
[2] = target: the molecule itself; experiment: ELISA; 1 µg of 1st protein coated on a 96-well plate (1 h, 25 °C), blocked with 5% milk in PBS; 2nd protein added at increasing concentrations in blocking buffer (1 h, 25 °C); detected with anti-WASp antibody, OD450; RPA coated alone or after pre-incubation with 1 nM ssDNA
[3] = target: RPA1 (RPA70) (Homo sapiens, UniProt P27694 1-616); experiment: EMSA; + WASp; binding increased, maximum at equimolar 25 nM WASp; EMSA: 1x Promega E358A gel shift binding buffer (composition not given), 25 ul, 10^5 CPM 32P probe, 10 min 4 C then 20 min room temperature, 6% native PAGE; conditions: protein: commercial; label: 32P (T4 PNK); single strand
Sequence of RPA1 (RPA70) (P27694 whole entry): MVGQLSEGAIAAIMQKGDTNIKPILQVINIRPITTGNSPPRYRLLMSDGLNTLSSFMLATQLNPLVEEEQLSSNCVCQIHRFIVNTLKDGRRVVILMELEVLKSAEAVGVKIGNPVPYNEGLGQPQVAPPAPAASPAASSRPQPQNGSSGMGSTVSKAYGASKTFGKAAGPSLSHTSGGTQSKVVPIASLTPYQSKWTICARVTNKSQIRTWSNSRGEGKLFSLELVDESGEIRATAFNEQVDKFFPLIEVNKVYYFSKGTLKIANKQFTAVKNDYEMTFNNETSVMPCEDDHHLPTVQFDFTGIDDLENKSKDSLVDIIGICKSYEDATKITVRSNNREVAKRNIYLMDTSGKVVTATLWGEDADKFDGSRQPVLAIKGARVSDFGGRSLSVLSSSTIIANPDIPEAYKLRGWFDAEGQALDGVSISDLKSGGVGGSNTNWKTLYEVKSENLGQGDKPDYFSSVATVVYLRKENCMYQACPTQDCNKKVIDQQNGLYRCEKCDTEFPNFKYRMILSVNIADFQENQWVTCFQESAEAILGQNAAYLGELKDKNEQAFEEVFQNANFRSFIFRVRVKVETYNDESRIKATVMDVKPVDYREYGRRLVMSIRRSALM

[4] = target: RPA1-AB (DBD-A/B) (Homo sapiens, UniProt P27694 181-422); experiment: EMSA; + WASp; binding increased; EMSA: 1x Promega E358A gel shift binding buffer (composition not given), 25 ul, 10^5 CPM 32P probe, 10 min 4 C then 20 min room temperature, 6% native PAGE; conditions: protein: recombinant; label: 32P (T4 PNK); single strand
Sequence of RPA1-AB (DBD-A/B) (P27694 181-422): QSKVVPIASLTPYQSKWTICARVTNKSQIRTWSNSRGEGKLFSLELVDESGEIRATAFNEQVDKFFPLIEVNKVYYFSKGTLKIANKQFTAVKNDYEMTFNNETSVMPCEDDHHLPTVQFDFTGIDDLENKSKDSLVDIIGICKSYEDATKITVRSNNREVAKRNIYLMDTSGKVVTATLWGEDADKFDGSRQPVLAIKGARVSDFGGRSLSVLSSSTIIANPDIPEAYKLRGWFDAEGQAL

[5] = target: RPA1-FAB (DBD-F/A/B) (Homo sapiens, UniProt P27694 1-422); experiment: as above; conditions: protein: recombinant; label: 32P (T4 PNK); single strand
Sequence of RPA1-FAB (DBD-F/A/B) (P27694 1-422): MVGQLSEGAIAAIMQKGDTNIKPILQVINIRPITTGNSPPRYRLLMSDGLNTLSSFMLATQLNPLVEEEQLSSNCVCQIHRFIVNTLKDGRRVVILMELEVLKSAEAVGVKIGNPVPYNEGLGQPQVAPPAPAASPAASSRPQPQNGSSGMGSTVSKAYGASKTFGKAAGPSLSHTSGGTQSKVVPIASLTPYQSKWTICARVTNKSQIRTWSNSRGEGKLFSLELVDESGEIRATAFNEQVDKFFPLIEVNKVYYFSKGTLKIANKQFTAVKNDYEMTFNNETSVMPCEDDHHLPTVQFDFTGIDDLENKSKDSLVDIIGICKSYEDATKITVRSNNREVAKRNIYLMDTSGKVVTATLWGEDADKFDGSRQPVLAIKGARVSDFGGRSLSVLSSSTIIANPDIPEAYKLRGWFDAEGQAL

[6] = target: RPA heterotrimer (RPA1-3) (Homo sapiens, UniProt P27694;P15927;P35244 1-616;1-270;1-121); experiment: as above; conditions: protein: recombinant; copies: 1;1;1; label: 32P (T4 PNK); single strand
Sequence of RPA heterotrimer (RPA1-3) (P27694 whole entry, chain 1 of 3): as the sequence (P27694 whole entry) above
Sequence of RPA heterotrimer (RPA1-3) (P15927 whole entry, chain 2 of 3): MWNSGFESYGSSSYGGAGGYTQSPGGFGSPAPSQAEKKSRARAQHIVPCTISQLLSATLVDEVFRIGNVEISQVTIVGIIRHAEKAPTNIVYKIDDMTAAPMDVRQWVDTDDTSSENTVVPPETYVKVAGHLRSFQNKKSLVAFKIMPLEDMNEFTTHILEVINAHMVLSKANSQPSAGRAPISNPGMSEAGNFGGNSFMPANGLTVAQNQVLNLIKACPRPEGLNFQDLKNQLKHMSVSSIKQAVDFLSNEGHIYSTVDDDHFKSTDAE
Sequence of RPA heterotrimer (RPA1-3) (P35244 whole entry, chain 3 of 3): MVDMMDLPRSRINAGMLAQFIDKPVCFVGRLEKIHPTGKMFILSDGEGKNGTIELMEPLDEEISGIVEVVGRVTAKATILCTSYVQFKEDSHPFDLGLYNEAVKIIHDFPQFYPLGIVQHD

B1: ssRNA 61-mer (ssRNA)
RNA: GACGCUGCCGAAUUCUACCAGUGCCUUGCUAGGACAUCUUUGCCCACCUGCAGGUUCACCC
[1]
  binding result: no binding

B2: Recombinant human WT*WASp (Wiskott-Aldrich syndrome protein) (natural protein, UniProt P42768 1-502, looked up)
chain: MSGGPMGGRPGGRGAPAVQQNIPSTLLQDHENQRLFEMLGRKCLTLATAVVQLYLALPPGAEHWTKEHCGAVCFVKDNPQKSYFIRLYGLQAGRLLWEQELYSQLVYSTPTPFFHTFAGDDCQAGLNFADEDEAQAFRALVQEKIQKRNQRQSGDRRQLPPPPTPANEERRGGLPPLPLHPGGDQGGPPVGPLSLGLATVDIQNPDITSSRYRGLPAPGPSPADKKRSGKKKISKADIGAPSGFKHVSHVGWDPQNGFDVNNLDPDLRSLFSRAGISEAQLTDAETSKLIYDFIEDQGGLEAVRQEMRRQEPLPPPPPPSRGGNQLPRPPIVGGNKGRSGPLPPVPLGIAPPPPTPRGPPPPGRGGPPPPPPPATGRSGPLPPPPPGAGGPPMPPPPPPPPPPPSSGNGPAPPPLPPALVPAGGLAPGGGRGALLDQIRQGIQLNKTPGAPESSALQPPPQSSEGLVGALMHVMQKRSRAIHSSDEGEDQAGDEDEDDEWDD
notes: human WASp, codon-optimized WAS gene cloned into the NdeI-HindIII site of pET30a; also called wild-type WASp; native purified human WASp; source: E. coli DE3 (pET30a-WT*WASp), purified using Flag-tag; commercially produced by GenScript
[2]
  binding result: binds

B3: Recombinant human ΔRBM1*WASp (WASp mutant lacking the RPA1-binding motif, aa 493-502) (natural protein, UniProt P42768 1-502, looked up)
chain: MSGGPMGGRPGGRGAPAVQQNIPSTLLQDHENQRLFEMLGRKCLTLATAVVQLYLALPPGAEHWTKEHCGAVCFVKDNPQKSYFIRLYGLQAGRLLWEQELYSQLVYSTPTPFFHTFAGDDCQAGLNFADEDEAQAFRALVQEKIQKRNQRQSGDRRQLPPPPTPANEERRGGLPPLPLHPGGDQGGPPVGPLSLGLATVDIQNPDITSSRYRGLPAPGPSPADKKRSGKKKISKADIGAPSGFKHVSHVGWDPQNGFDVNNLDPDLRSLFSRAGISEAQLTDAETSKLIYDFIEDQGGLEAVRQEMRRQEPLPPPPPPSRGGNQLPRPPIVGGNKGRSGPLPPVPLGIAPPPPTPRGPPPPGRGGPPPPPPPATGRSGPLPPPPPGAGGPPMPPPPPPPPPPPSSGNGPAPPPLPPALVPAGGLAPGGGRGALLDQIRQGIQLNKTPGAPESSALQPPPQSSEGLVGALMHVMQKRSRAIHSSDEGEDQAG
notes: also called RBM1-deleted WASp mutant; source: E. coli DE3 (pET30a-∆RBM1*WASp), purified using Flag-tag; commercially produced by GenScript
[2]
  binding result: binds

B4: XO1 ssDNA 61-mer (ssDNA)
DNA: GACGCTGCCGAATTCTACCAGTGCCTTGCTAGGACATCTTTGCCCACCTGCAGGTTCACCC
[3]
  binding result: binds
[1]
  binding result: no binding
[4]
  binding result: binds
[5]
  binding result: binds
[6]
  binding result: binds
